Data published in US20090042291A1 (published 2009).

T1: human FcγRIIb on cells (HEK293T cells transfected with human FcγRIIb cDNA; primary human B cells) (human, UniProt P31994 43-310)
T1 construct: whole, on cells; also called CD32b
T1 sequence (looked up): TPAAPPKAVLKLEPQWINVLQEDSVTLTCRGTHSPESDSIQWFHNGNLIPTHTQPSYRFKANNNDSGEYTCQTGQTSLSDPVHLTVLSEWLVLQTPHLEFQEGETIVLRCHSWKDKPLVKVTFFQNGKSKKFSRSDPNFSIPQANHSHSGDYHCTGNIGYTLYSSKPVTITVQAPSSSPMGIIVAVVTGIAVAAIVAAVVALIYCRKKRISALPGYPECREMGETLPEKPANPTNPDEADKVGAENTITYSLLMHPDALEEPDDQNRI

T2: human FcγRIIb receptor protein (R&D Systems) (human, UniProt P31994 46-217, limits assumed)
T2 construct: Bought
T2 sequence (looked up): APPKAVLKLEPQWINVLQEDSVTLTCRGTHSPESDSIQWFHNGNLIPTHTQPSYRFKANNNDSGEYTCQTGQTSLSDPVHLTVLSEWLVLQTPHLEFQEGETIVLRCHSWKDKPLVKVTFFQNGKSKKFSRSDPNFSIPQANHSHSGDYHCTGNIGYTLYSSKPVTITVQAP


How the values were obtained:
[1] = target: T1, human FcγRIIb on cells (HEK293T cells …); assay: flow cytometry on HEK293T cells transfected with human FcγRIIb, PE anti-human Fab detection
[2] = target: T2, human FcγRIIb receptor protein (R&D …); assay: Biacore SPR

Row | Binder | EC50 fold relative to WT IgG1 [1] [fold] | Kd [2] [nM] | fold relative to native IgG1 [2] [fold]
1 | anti-CD19 HuAM4G7 IgG1 S267E/L328F (antibody) chain 1: not shown chain 2: DIVMTQSPATLSLSPGERATLSCRSSKSLQNVNGNTYLYWFQQKPGQSPQLLIYRMSNLNSGVPDRFSGSGSGTEFTLTISSLEPEDFAVYYCMQHLEYPITFGAGTKLEIKRTVAAPSVFIFPPSDEQLKSGTASVVCLLNNFYPREAKVQWKVDNALQSGNSQESVTEQDSKDSTYSLSSTLTLSKADYEKHKVYACEVTHQGLSSPVTKSFNRGEC | ~320 | – | –
2 | anti-CD19 HuAM4G7 IgG1 S267A (antibody) chain 1: not shown chain 2: DIVMTQSPATLSLSPGERATLSCRSSKSLQNVNGNTYLYWFQQKPGQSPQLLIYRMSNLNSGVPDRFSGSGSGTEFTLTISSLEPEDFAVYYCMQHLEYPITFGAGTKLEIKRTVAAPSVFIFPPSDEQLKSGTASVVCLLNNFYPREAKVQWKVDNALQSGNSQESVTEQDSKDSTYSLSSTLTLSKADYEKHKVYACEVTHQGLSSPVTKSFNRGEC | – | 408 | 3.6
3 | anti-CD19 HuAM4G7 IgG1 S267E (antibody) chain 1: not shown chain 2: DIVMTQSPATLSLSPGERATLSCRSSKSLQNVNGNTYLYWFQQKPGQSPQLLIYRMSNLNSGVPDRFSGSGSGTEFTLTISSLEPEDFAVYYCMQHLEYPITFGAGTKLEIKRTVAAPSVFIFPPSDEQLKSGTASVVCLLNNFYPREAKVQWKVDNALQSGNSQESVTEQDSKDSTYSLSSTLTLSKADYEKHKVYACEVTHQGLSSPVTKSFNRGEC | – | 71.9 | 20.4
